Assay results as given in patent publication US20240174733A1 (ACCELERON PHARMA, published 2024).

Experiments:
ActRIIA-mFc [1] = biological target: T1, ActRIIA-mFc (human, UniProt P27037 21-135); test: similar binding assay (Biacore)
T1 construct: also called RAP-011; sotatercept analog RAP-011; not shown: "minimal linker"; mouse Fc domain

ActRIIA-mFc [2] = biological target: T1, ActRIIA-mFc; test: SPR (Biacore), ligand amine-coupled on CM5 chip, ActRIIA-mFc as analyte
Protocol: GDF11 or activin A were immobilized on a Biacore™ CM5 chip using standard amine-coupling procedure. ActRIIA-hFc and ActRIIA-mFc proteins were loaded onto the system, and binding was measured. […] Using a similar binding assay, ActRIIA-hFc was determined to have high to moderate affinity for other TGF-beta superfamily ligands including, for example, activin B, GDF8, BMP6, and BMP10. ActRIIA-mFc behaved similarly.

T1 sequence (P27037 21-135): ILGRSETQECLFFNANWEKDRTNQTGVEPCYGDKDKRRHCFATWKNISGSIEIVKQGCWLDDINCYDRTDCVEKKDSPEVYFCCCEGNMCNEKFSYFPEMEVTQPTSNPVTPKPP

B1: BMP10 (ligand, UniProt O95393 317-424, looked up)
chain: NAKGNYCKRTPLYIDFKEIGWDSWIIAPPGYEAYECRGVCNYPLAEHLTPTKHAIIQALVHLKNSQKASKACCVPTKLEPISILYLDKGVVTYKFKYEGMAVSECGCR
**Q.** Does B1 bind (ActRIIA-mFc [1])?
**A.** Result: binds

B2: GDF11 (ligand, UniProt O95390 299-407, looked up)
chain: NLGLDCDEHSSESRCCRYPLTVDFEAFGWDWIIAPKRYKANYCSGQCEYMFMQKYPHTHLVQQANPRGSAGPCCTPTKMSPINMLYFNDKQQIIYGKIPGMVVDRCGCS
notes: Immobilized on a Biacore CM5 chip by amine coupling
**Q.** Does B2 bind (ActRIIA-mFc [2])?
**A.** Result: binds
